{"source": "patent US7037674", "system": "cytochrome c"}
{"substance": "cytochrome P-450 reductase purified from P. somniferum cell suspension cultures", "values": [{"measurement": "Km (cytochrome c reduction, enzyme activity)", "result": "The Km value for cytochrome c was 8.3 µM"}]}
